Patent publication EP1127148B1

Target: TAG-72 positive bovine submaxillary mucin (BSM) (bovine)
Assay: relative affinity constant from competition RIA on BSM

Substance “humanized monoclonal antibody CC49 (HuCC49)” has a Ka of 3.2e+08 M⁻¹.
